# From patent US20250352661A1 (MYTHIC THERAPEUTICS, published 2025)
# T1: Human LRRC15 Protein, His Tag (Acro Biosystems) (human, UniProt Q8TF66 22-538, limits assumed)
# T1 construct: Bought protein with His tag
# T1 sequence (looked up): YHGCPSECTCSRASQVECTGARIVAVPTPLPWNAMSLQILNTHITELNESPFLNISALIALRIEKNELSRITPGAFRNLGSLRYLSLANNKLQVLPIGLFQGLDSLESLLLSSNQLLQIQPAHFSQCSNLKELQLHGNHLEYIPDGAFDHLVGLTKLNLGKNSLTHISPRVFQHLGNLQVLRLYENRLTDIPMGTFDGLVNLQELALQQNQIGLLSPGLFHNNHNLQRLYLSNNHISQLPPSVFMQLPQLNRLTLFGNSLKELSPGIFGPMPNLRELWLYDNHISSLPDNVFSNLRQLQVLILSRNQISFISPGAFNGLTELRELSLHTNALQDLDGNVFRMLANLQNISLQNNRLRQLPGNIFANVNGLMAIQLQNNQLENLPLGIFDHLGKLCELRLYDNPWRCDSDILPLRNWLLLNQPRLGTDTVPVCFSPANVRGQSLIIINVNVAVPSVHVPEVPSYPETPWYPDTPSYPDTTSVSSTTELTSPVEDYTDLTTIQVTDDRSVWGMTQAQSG
# Molecular target: T1, Human LRRC15 Protein, His Tag (Acro …)
# Assay: BLI; dissociation pH 7.4 black, pH 5.4 grey [1/2); D00013 FIG. 2B (1/2]
row,Binder,binding result
1,"MYT7899 (antibody, V domains shown, rabbit 24D9 VH D58H; chimeric, human constant regions) VH: QQQLVESGGGLVKPGASLTLTCKASGFSFSGSYWICWVRQAPGKGLEWIGCINGGSLHITYYASWAKGRFTISKASSTTVTLQKTSLTAADTATYFCASDTSYTAYGNFYFNLWGPGTLVTVSS VL: AQVLTQTASPVSAAVGGTVTINCQSSQSVLNNNWLAWYQQKPGQPPKLLIYDASSLASGVPSRFKGSGSGTQFTLTISDLESDDAATYYCQGEFSCGSADCNAFGGGTEVVVKG",binds
2,"MYT7900 (antibody, V domains shown, rabbit 24D9 VH I59H; chimeric, human constant regions) VH: QQQLVESGGGLVKPGASLTLTCKASGFSFSGSYWICWVRQAPGKGLEWIGCINGGSLDHTYYASWAKGRFTISKASSTTVTLQKTSLTAADTATYFCASDTSYTAYGNFYFNLWGPGTLVTVSS VL: AQVLTQTASPVSAAVGGTVTINCQSSQSVLNNNWLAWYQQKPGQPPKLLIYDASSLASGVPSRFKGSGSGTQFTLTISDLESDDAATYYCQGEFSCGSADCNAFGGGTEVVVKG",binds
3,"MYT7906 (antibody, V domains shown, rabbit 24D9 VH W65H; chimeric, human constant regions) VH: QQQLVESGGGLVKPGASLTLTCKASGFSFSGSYWICWVRQAPGKGLEWIGCINGGSLDITYYASHAKGRFTISKASSTTVTLQKTSLTAADTATYFCASDTSYTAYGNFYFNLWGPGTLVTVSS VL: AQVLTQTASPVSAAVGGTVTINCQSSQSVLNNNWLAWYQQKPGQPPKLLIYDASSLASGVPSRFKGSGSGTQFTLTISDLESDDAATYYCQGEFSCGSADCNAFGGGTEVVVKG",binds
4,"MYT7903 (antibody, V domains shown, rabbit 24D9 VH Y62H; chimeric, human constant regions) VH: QQQLVESGGGLVKPGASLTLTCKASGFSFSGSYWICWVRQAPGKGLEWIGCINGGSLDITYHASWAKGRFTISKASSTTVTLQKTSLTAADTATYFCASDTSYTAYGNFYFNLWGPGTLVTVSS VL: AQVLTQTASPVSAAVGGTVTINCQSSQSVLNNNWLAWYQQKPGQPPKLLIYDASSLASGVPSRFKGSGSGTQFTLTISDLESDDAATYYCQGEFSCGSADCNAFGGGTEVVVKG",binds
5,"MYT7904 (antibody, V domains shown, rabbit 24D9 VH A63H; chimeric, human constant regions) VH: QQQLVESGGGLVKPGASLTLTCKASGFSFSGSYWICWVRQAPGKGLEWIGCINGGSLDITYYHSWAKGRFTISKASSTTVTLQKTSLTAADTATYFCASDTSYTAYGNFYFNLWGPGTLVTVSS VL: AQVLTQTASPVSAAVGGTVTINCQSSQSVLNNNWLAWYQQKPGQPPKLLIYDASSLASGVPSRFKGSGSGTQFTLTISDLESDDAATYYCQGEFSCGSADCNAFGGGTEVVVKG",binds

# Next, values leading:
row,binding result,Binder
1,binds,"MYT7905 (antibody, V domains shown, rabbit 24D9 VH S64H; chimeric, human constant regions) VH: QQQLVESGGGLVKPGASLTLTCKASGFSFSGSYWICWVRQAPGKGLEWIGCINGGSLDITYYAHWAKGRFTISKASSTTVTLQKTSLTAADTATYFCASDTSYTAYGNFYFNLWGPGTLVTVSS VL: AQVLTQTASPVSAAVGGTVTINCQSSQSVLNNNWLAWYQQKPGQPPKLLIYDASSLASGVPSRFKGSGSGTQFTLTISDLESDDAATYYCQGEFSCGSADCNAFGGGTEVVVKG"
2,binds,"MYT7901 (antibody, V domains shown, rabbit 24D9 VH T60H; chimeric, human constant regions) VH: QQQLVESGGGLVKPGASLTLTCKASGFSFSGSYWICWVRQAPGKGLEWIGCINGGSLDIHYYASWAKGRFTISKASSTTVTLQKTSLTAADTATYFCASDTSYTAYGNFYFNLWGPGTLVTVSS VL: AQVLTQTASPVSAAVGGTVTINCQSSQSVLNNNWLAWYQQKPGQPPKLLIYDASSLASGVPSRFKGSGSGTQFTLTISDLESDDAATYYCQGEFSCGSADCNAFGGGTEVVVKG"
3,binds,"MYT7902 (antibody, V domains shown, rabbit 24D9 VH Y61H; chimeric, human constant regions) VH: QQQLVESGGGLVKPGASLTLTCKASGFSFSGSYWICWVRQAPGKGLEWIGCINGGSLDITHYASWAKGRFTISKASSTTVTLQKTSLTAADTATYFCASDTSYTAYGNFYFNLWGPGTLVTVSS VL: AQVLTQTASPVSAAVGGTVTINCQSSQSVLNNNWLAWYQQKPGQPPKLLIYDASSLASGVPSRFKGSGSGTQFTLTISDLESDDAATYYCQGEFSCGSADCNAFGGGTEVVVKG"
